Data reported in patent US20040018971A1 (published 2004).

Columns and labels:
[1] = target: HLA-A*1101 (human); assay: competitive inhibition of 125I-labeled probe peptide binding to purified HLA-A*1101, gel filtration
[2] = target: HLA-A*1101 (human); assay: inhibition of 125I-labelled probe peptide binding to purified HLA-A*1101, gel filtration; relative to standard peptide 940.06

Binder	relative binding ratio [1]	relative binding ratio [2]
AFSPAFDNLY [HER2/neu peptide, position 1212, 10 amino acids]	0.0003 ratio (IC50 of standard peptide / IC50 of test peptide)	
ALESILRRR [HER2/neu peptide, position 890, 9 amino acids]	0.0006 ratio (IC50 of standard peptide / IC50 of test peptide)	
ALTLIDTNR [HER2/neu peptide, position 180, 9 amino acids]	0.0005 ratio (IC50 of standard peptide / IC50 of test peptide)	
AMPNQAQMR (T0001 prints N there) [HER2/neu peptide, position 705, 9 amino acids]	0.0006 ratio (IC50 of standard peptide / IC50 of test peptide)	
ASCVTACPY (also called Her2/neu.293) [HER2/neu peptide, position 293, 9 amino acids]	0.0074 ratio (IC50 of standard peptide / IC50 of test peptide)	
ASPLDSTFY [HER2/neu peptide, position 997, 9 amino acids]	0.0004 ratio (IC50 of standard peptide / IC50 of test peptide)	
CAAGCTGPK [HER2/neu peptide, position 240, 9 amino acids]	0.0021 ratio (IC50 of standard peptide / IC50 of test peptide)	
CAGGCARCK [HER2/neu peptide, position 220, 9 amino acids]	-0.0002 ratio (IC50 of standard peptide / IC50 of test peptide)	
CLLDHVRENR [HER2/neu peptide, position 805, 10 amino acids]	0.0001 ratio (IC50 of standard peptide / IC50 of test peptide)	
CSKPCARVCY [HER2/neu peptide, position 334, 10 amino acids]	0.0002 ratio (IC50 of standard peptide / IC50 of test peptide)	
CSPMCKGSR [HER2/neu peptide, position 195, 9 amino acids]	-0.0001 ratio (IC50 of standard peptide / IC50 of test peptide)	
CTGTDMKLR [HER2/neu peptide, position 26, 9 amino acids]	0.0005 ratio (IC50 of standard peptide / IC50 of test peptide)	
CVARCPSGVK [HER2/neu peptide, position 596, 10 amino acids]	0.0042 ratio (IC50 of standard peptide / IC50 of test peptide)	
CVNCSQFLR (also called Her2/neu.528) [HER2/neu peptide, position 528, 9 amino acids]	0.031 ratio (IC50 of standard peptide / IC50 of test peptide)	
CVTACPYNY [HER2/neu peptide, position 295, 9 amino acids]	0.0004 ratio (IC50 of standard peptide / IC50 of test peptide)	
DLAARNVLVK [HER2/neu peptide, position 845, 10 amino acids]	0.0007 ratio (IC50 of standard peptide / IC50 of test peptide)	

Binder	relative binding ratio [1]	relative binding ratio [2]
DLSYMPIWK [HER2/neu peptide, position 607, 9 amino acids]	0.01 ratio (IC50 of standard peptide / IC50 of test peptide)	
DSECRPRFR [HER2/neu peptide, position 962, 9 amino acids]	-0.0002 ratio (IC50 of standard peptide / IC50 of test peptide)	
DVRPQPPSPR [HER2/neu peptide, position 1144, 10 amino acids]	0.0001 ratio (IC50 of standard peptide / IC50 of test peptide)	
LTLIDTNRSR (also called HER2/neu 181-190) [HER2/neu A11 motif peptide, position 181, 10 amino acids]		0.0005 ratio (IC50 of standard peptide / IC50 of test peptide)
LVHRDLAAR (also called HER2/neu 841-849) [HER2/neu A11 motif peptide, position 841, 9 amino acids]		0.0014 ratio (IC50 of standard peptide / IC50 of test peptide)
MALESILRRR (also called HER2/neu 889-898) [HER2/neu A11 motif peptide, position 889, 10 amino acids]		0.0003 ratio (IC50 of standard peptide / IC50 of test peptide)
MGDLVDAEEY (also called HER2/neu 1014-1023) [HER2/neu A11 motif peptide, position 1014, 10 amino acids]		0.0002 ratio (IC50 of standard peptide / IC50 of test peptide)
MIDSECRPR [HER2/neu A11 motif peptide, position 960, 9 amino acids]		0.0006 ratio (IC50 of standard peptide / IC50 of test peptide)
NIQEFAGCK [HER2/neu A11 motif peptide, position 360, 9 amino acids]		0.0036 ratio (IC50 of standard peptide / IC50 of test peptide)
NIQEFAGCKK (also called HER2/neu 360-369) [HER2/neu A11 motif peptide, position 360, 10 amino acids]		0.0056 ratio (IC50 of standard peptide / IC50 of test peptide)
NVKIPVAIKV (Built as this row prints it (length 10); also called HER2/neu 745-754) [HER2/neu A11 motif peptide, position 745, 10 amino acids]		0.0007 ratio (IC50 of standard peptide / IC50 of test peptide)
PAGATLERPK (also called HER2/neu 1162-1171) [HER2/neu A11 motif peptide, position 1162, 10 amino acids]		-0.0002 ratio (IC50 of standard peptide / IC50 of test peptide)
PASPLDSTFY (also called HER2/neu 996-1005) [HER2/neu A11 motif peptide, position 996, 10 amino acids]		0.0001 ratio (IC50 of standard peptide / IC50 of test peptide)
PLPSETDGY (also called HER2/neu 1119-1127) [HER2/neu A11 motif peptide, position 1119, 9 amino acids]		0.0002 ratio (IC50 of standard peptide / IC50 of test peptide)
PLQRLRIVR [HER2/neu A11 motif peptide, position 95, 9 amino acids]		0.0001 ratio (IC50 of standard peptide / IC50 of test peptide)
